Among the data in patent publication US20020127657A1 are koff values, retold here.

As a reminder, the koff is the rate constant with which the complex falls apart.

This test has as its target GST-fusion of the truncated CD2 tail (CD2221-282) (human) (UniProt P06729). Nature of the test: NMR titration, estimate from line broadening in fast exchange.

GST-fusion of the truncated CD2 tail (CD2221-282) (human), sequence (P06729 245-306): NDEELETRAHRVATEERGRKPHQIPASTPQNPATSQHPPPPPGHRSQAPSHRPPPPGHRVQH

For “purified binding domain of CD2BP2 comprising amino acids 256-341 (His-tagged, NMR sample)”, the koff is > 1000 s⁻¹.
